Source: patent publication US20250276081A1, “Mucin-Active Proteases and Methods of Use” (priority 2022, published 2025)

Legend:
CD30 (human) = CD30 (human) (UniProt P28908)
OVCAR-3 cells = assay: Bioactive compound library screen and STACK cell death analysis ± StcE; type: cell-based
Procedure: Bioactive compound library screen. A library of 261 bioactive compounds (Selleck Chemicals) was stored at −80° C. The library was re-formatted from 96-well to 384-well format using a Versette automated liquid handler configured with a 96-channel pipetting head and diluted to 2 mM in DMSO. The day before the screen, 5×10^3 OVCAR-3^N cells/well were seeded into two 384-well plates in 45 μL of medium. The next day, the medium was removed and replaced with medium containing 20 nM Sytox Green and compounds from a freshly thawed library master stock plate (1 compound/well) were added to a final concentration of 500 nM. One plate was co-treated with vehicle (PBS) and the other with 50 nM StcE. Plates were imaged immediately and every 2 h thereafter for a total of 72 h using the Essen IncuCyte Zoom. Counts of Sytox Green and mKate^2 objects per mm^2 were obtained and the lethal fraction calculated as previously described^2. […] The Bliss Independence Model was used to compute expectant cell death of compound+ StcE treatment using normalized AUC (nAUC) values, and deviation from this expectation was used to infer modulation of cell death, as described previously^3.
Measuring cell death using STACK. Follow-up cell death experiments of OVCAR-3^N cells were performed using scalable time-lapse analysis of cell death kinetics (STACK) 2. […]

CD29 (human) = CD29 (human) (UniProt P05556)
Chain of CD29 (human) (P05556 21-798): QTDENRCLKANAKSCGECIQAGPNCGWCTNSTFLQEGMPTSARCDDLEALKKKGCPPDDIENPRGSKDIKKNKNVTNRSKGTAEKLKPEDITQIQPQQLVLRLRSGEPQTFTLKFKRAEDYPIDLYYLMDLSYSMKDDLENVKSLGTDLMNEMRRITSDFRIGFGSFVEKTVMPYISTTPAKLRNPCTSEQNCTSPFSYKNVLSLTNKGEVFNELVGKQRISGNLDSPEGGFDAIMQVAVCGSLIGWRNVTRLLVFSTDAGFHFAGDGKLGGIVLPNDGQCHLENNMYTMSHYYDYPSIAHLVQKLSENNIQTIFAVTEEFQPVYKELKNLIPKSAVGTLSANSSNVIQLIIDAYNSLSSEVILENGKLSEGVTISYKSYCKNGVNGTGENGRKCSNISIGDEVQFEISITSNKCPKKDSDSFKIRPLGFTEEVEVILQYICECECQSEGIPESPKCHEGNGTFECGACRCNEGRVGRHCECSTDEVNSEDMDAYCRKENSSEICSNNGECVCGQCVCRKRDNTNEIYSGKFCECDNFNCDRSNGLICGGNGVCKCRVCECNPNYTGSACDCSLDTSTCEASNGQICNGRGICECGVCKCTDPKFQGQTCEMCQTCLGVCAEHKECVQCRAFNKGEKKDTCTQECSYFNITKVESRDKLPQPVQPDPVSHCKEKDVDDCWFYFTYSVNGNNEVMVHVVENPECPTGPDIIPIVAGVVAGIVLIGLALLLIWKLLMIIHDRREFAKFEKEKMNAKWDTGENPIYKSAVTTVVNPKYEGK

[1] = biological target: human epidermal growth factor receptor 2 (HER2) (human) (UniProt P04626)
CD46 (human) = CD46 (human) (UniProt P15529)
Chain of CD46 (human) (P15529 35-392): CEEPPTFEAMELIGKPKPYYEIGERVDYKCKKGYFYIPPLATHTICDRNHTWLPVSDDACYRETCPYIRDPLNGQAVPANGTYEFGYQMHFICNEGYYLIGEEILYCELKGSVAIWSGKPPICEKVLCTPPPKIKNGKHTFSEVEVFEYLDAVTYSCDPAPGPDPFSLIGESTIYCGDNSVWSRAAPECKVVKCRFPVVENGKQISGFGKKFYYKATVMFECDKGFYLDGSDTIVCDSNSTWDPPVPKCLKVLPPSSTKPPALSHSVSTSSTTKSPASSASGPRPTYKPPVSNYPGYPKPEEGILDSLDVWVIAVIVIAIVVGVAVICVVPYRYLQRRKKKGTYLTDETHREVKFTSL

CD236 (human) = CD236 (human) (UniProt P04921)
Chain of CD236 (human) (P04921 whole entry): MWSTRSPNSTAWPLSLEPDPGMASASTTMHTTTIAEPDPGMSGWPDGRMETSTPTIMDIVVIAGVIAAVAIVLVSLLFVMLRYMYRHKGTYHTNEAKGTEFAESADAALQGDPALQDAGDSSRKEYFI

[2] = biological target: CD43 (sialophorin) (human) (UniProt P16150)
Chain of CD43 (sialophorin) (human) (P16150 20-400): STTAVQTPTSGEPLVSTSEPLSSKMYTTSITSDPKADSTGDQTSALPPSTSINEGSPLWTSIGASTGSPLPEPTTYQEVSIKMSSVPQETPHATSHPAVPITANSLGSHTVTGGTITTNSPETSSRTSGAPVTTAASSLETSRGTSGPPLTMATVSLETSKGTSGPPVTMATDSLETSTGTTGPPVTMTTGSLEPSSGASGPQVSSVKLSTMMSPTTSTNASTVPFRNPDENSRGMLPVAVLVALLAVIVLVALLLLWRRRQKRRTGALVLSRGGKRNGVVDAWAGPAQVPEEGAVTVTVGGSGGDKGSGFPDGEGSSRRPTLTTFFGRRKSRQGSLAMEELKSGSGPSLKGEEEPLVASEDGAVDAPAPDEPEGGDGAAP

[3] = biological target: Annexin A1 (ANXA1) (human) (UniProt P04083)
Chain of Annexin A1 (ANXA1) (human) (P04083 2-346): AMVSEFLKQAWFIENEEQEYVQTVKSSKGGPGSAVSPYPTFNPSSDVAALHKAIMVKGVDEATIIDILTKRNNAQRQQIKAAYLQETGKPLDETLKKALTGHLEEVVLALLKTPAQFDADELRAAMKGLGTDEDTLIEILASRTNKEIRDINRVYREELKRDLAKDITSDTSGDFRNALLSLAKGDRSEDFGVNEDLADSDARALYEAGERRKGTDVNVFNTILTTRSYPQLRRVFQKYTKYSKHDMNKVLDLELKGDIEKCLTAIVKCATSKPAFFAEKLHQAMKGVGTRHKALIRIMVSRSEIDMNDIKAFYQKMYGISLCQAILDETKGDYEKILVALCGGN

mucin-1 (MUC1) (human) = mucin-1 (MUC1) (human) (UniProt P15941)
Chain of mucin-1 (MUC1) (human) (P15941 24-1255): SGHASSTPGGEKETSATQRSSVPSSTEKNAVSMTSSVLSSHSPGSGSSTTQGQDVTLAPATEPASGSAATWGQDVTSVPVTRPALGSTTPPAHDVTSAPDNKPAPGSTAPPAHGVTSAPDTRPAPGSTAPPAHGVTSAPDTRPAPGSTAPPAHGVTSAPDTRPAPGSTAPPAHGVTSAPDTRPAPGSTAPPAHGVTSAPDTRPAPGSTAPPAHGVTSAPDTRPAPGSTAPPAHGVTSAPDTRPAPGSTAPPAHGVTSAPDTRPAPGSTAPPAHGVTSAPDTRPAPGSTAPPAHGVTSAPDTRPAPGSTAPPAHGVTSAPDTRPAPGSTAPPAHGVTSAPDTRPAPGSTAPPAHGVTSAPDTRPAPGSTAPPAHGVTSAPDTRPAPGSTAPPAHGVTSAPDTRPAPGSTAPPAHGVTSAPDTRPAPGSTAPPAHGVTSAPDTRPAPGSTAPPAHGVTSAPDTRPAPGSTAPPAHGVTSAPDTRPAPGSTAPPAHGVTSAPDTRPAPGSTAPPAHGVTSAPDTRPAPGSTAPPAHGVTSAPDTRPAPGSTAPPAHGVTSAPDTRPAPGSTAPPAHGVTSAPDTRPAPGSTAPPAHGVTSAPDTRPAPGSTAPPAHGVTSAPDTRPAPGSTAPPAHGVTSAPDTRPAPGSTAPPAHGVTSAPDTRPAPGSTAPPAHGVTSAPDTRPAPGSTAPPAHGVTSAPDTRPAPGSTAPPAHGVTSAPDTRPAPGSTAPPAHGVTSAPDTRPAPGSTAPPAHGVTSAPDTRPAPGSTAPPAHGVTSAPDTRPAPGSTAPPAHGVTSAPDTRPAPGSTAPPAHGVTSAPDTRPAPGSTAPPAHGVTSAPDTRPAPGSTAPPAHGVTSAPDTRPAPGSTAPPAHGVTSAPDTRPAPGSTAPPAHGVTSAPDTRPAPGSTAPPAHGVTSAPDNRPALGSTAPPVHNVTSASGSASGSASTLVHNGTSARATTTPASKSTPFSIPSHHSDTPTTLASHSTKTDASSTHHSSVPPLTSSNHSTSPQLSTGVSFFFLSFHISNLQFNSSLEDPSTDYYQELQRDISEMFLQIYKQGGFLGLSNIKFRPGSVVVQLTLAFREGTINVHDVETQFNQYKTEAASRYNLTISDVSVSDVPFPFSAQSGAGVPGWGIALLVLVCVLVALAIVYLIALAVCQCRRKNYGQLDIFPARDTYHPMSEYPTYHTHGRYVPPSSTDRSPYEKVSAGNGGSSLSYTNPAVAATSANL

[4] = biological target: cell surface mucins on HeLa cells
CD98 (human) = CD98 (human) (UniProt P08195)
Chain of CD98 (human) (P08195 103-630): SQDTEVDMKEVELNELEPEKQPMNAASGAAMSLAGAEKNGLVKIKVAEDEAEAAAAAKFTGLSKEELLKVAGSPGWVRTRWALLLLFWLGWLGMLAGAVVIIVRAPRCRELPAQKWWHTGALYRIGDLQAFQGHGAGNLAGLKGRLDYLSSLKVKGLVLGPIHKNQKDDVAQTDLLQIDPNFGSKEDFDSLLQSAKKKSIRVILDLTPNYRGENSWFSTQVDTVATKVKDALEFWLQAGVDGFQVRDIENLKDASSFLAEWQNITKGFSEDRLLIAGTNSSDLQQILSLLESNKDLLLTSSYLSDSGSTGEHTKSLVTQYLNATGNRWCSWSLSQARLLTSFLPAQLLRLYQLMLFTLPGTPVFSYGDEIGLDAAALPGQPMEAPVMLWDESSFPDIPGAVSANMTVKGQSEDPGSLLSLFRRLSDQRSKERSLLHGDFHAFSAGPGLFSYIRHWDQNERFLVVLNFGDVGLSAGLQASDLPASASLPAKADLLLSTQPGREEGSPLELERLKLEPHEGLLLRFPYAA

Chain of CD30 (human) (P28908 19-595): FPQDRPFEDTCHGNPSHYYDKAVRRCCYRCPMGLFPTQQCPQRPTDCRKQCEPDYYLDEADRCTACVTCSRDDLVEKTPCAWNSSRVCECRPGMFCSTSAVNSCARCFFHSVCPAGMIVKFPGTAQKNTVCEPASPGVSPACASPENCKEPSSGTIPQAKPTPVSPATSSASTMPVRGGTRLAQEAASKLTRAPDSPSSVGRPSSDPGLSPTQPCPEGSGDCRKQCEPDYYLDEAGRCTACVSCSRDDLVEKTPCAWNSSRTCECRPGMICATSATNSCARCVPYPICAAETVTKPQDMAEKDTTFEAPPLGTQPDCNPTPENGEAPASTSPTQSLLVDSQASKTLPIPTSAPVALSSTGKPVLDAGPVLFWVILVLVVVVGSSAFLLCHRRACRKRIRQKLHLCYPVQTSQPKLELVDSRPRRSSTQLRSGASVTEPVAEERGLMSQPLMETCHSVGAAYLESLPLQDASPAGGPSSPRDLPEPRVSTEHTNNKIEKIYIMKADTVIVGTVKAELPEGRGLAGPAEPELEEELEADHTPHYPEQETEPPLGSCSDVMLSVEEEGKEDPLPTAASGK

Compound: anti-CD30 antibody, clone BY88 (BioLegend)
- Maximum MFI observed in binding assay (CD30 (human)): 9.8 AU

Compound: CCOC(=O)c1ccc(NC2CCCCC2)c(N)c1 [ferrostatin-1]
- Suppression of erastin2 + StcE induced ferroptosis (OVCAR-3 cells; 1 μM ferrostatin-1): fully suppressed

Compound: anti-CD29 antibody, clone P5D2 (BioLegend)
- Maximum MFI observed in binding assay (CD29 (human)): 23.7 AU

Compound: Mouse IgG1 anti-human CD340 (erbB2/HER-2) antibody, clone 24D2 (BioLegend)
- Maximum MFI observed in binding assay [1]: 311 AU

Compound: anti-CD46 antibody, clone TRA-2-10 (BioLegend)
- Maximum MFI observed in binding assay (CD46 (human)): 64.9 AU

Compound: anti-CD236 antibody, clone QA20A41 (BioLegend)
- Maximum MFI observed in binding assay (CD236 (human)): 188 AU

Compound: anti-CD43 antibody, clone CD43-10G7 (BioLegend)
- Maximum MFI observed in binding assay [2]: 160 AU

Compound: anti-Annexin A1 antibody, clone 74/3 (BioLegend)
- Maximum MFI observed in binding assay [3]: 1.3 AU

Compound: COC(=O)c1ccc([C@@H]2c3[nH]c4ccccc4c3C[C@@H](C(=O)OC)N2C(=O)CCl)cc1 [RSL3]
- Enhancement of ferroptosis by StcE co-treatment (OVCAR-3 cells; dose response ± 50 nM StcE, OVCAR-3): no enhancement of ferroptosis

Compound: Anti-MUC1/episialin antibody, clone 214D4 (EMD Millipore)
- Maximum MFI observed in binding assay (mucin-1 (MUC1) (human)): 328 AU

Compound: Isotype control antibody, clone MOPC-21 (BioLegend)
- Maximum MFI observed in binding assay (K562^HER2 cell surface): 0.1 AU

Compound: ddStcE^W366A (ΔC, ΔINS and W366A), engineered StcE (from UniProt O82882 36-803) (enzyme)
- Kd [4]: 2 µM

Compound: anti-CD98 antibody, clone MEM-108 (BioLegend)
- Maximum MFI observed in binding assay (CD98 (human)): 234 AU
